This note sets out measurements from PMC9841416.

In the data set the target is NTH-RNase E D346N D346N (Escherichia coli (K12, P21513-1 in alignment)) (UniProt P21513). The data set is described as follows: EMSA. The following applies: 25 mM bis-Tris propane pH 8.3, 100 mM KCl, 15 mM CaCl2, 0.1% (v/v) Triton X-100, 1 mM DTT, 20% (v/v) glycerol, 37 C 20 min; 1% agarose gel in 1x TBE.
For orientation: Kd means the equilibrium constant for the complex coming apart. A high value points to a looser complex. “glnW-tRNA (no flanking single-stranded regions)” returned a Kd of 56 nM.

“metU-tRNA with 5' and 3' single-stranded regions”: the Kd came to 19 nM.

glnW-metU segment registered a Kd of 27 nM.
